Values quoted from earlier work as cited in patent publication US8076300B2, “FGF2-binding peptides and uses thereof” (Tecnogen S.p.A., priority 2006, dated 2011).

Molecular target: FGF2 (Homo sapiens, UniProt P09038)
Conditions: cited from earlier work

FGF2, sequence (P09038 143-288): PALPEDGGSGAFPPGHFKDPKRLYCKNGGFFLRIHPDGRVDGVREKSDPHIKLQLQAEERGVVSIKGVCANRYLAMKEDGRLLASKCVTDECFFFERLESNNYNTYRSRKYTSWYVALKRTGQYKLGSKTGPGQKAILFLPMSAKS

Question: Which FGF2 binding does the source give for “SAP: classical short-pentraxin serum amyloid P component” here?
Answer: inefficient FGF2 binders
